Values quoted from earlier work, collected in publication PMC6239910.

Biological target: Ube2D3-Ub conjugate (Homo sapiens) (UniProt P61077)
Sequence (P61077 whole entry): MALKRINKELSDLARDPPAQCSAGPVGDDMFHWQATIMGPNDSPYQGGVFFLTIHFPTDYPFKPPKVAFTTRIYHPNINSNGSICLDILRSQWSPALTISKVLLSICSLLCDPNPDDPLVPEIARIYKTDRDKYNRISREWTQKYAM

Sequence of UHRF1 (Q96T88 whole entry): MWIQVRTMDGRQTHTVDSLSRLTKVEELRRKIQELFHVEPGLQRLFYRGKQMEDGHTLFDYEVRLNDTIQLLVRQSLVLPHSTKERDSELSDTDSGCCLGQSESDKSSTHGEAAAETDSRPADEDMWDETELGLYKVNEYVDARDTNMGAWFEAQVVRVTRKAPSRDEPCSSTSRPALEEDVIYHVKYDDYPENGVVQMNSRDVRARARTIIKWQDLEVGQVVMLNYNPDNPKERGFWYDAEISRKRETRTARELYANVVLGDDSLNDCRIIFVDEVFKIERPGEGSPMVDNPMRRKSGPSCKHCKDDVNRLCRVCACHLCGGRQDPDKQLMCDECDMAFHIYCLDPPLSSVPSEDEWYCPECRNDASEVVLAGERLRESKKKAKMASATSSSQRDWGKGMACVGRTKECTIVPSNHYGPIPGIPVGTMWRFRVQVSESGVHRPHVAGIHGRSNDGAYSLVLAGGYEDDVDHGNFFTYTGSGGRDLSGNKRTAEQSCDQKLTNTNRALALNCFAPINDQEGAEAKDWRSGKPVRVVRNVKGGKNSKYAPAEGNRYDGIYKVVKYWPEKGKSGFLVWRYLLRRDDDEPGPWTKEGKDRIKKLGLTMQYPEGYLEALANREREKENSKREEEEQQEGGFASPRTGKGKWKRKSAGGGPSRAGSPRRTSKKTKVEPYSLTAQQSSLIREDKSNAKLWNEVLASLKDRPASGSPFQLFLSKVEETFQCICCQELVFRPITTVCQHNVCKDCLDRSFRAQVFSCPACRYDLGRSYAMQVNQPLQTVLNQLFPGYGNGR

Kd: 3.2 µM
Substance: UHRF1 (from UniProt Q96T88)
